Assay results published in US20230331800A1.
Each block holds one substance with its values, some of them ahead of it.

Tests used:
[1] = target: IL2 receptors on lymphocyte populations of human PBMCs (human) (UniProt P01589); assay: cell-based or functional assay
[2] = target: OT-I TCR (ovalbumin(257-264)-specific T cell receptor of OT-1 TCR transgenic mouse CD8+ T cells) (mouse); assay: cell-based or functional assay; conditions: scale: orders of magnitude higher potency than T5-IL2M6

Sequence of UniProt P01589 (P01589 22-272, chain 1 of 3): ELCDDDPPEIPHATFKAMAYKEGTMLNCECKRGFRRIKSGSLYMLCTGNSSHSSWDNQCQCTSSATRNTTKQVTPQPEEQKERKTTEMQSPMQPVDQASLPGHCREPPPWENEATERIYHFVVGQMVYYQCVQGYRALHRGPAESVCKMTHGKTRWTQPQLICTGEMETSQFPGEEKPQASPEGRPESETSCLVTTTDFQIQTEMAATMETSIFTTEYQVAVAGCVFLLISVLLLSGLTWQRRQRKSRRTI
Sequence of UniProt P01589 (P14784 27-551, chain 2 of 3, further chain): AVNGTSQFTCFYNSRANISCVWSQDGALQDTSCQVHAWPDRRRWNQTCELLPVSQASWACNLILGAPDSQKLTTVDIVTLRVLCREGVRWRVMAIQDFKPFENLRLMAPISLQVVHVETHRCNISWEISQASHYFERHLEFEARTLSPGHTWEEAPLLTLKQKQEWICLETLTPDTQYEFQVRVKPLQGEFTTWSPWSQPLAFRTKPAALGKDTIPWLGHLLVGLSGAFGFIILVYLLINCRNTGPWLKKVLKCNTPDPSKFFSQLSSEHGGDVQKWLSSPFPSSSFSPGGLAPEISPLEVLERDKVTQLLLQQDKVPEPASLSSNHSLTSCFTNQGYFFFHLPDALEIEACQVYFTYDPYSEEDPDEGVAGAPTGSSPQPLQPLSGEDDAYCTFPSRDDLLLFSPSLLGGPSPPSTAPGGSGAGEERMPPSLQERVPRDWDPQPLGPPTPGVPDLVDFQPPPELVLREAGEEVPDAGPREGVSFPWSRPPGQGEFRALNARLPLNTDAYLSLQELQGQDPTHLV
Sequence of UniProt P01589 (P31785 23-369, chain 3 of 3, further chain): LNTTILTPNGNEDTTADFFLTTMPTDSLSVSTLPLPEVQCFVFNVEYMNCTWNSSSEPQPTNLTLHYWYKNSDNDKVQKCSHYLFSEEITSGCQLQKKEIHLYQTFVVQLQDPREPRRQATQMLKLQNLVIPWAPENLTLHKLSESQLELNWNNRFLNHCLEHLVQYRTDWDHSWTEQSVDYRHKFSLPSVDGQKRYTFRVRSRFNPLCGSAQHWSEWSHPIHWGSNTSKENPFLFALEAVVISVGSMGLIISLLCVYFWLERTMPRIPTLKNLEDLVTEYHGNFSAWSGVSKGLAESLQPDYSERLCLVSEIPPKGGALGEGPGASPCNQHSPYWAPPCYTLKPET

potency in STAT5 phosphorylation on multiple lymphocyte populations (FIG. 14A-C), against IL2M4 (fold less potent than IL2M4) [1]: > 100
Substance: IL2M5: Fc-GGGGS-human IL2 (N88D, C125A) fusion (Fc fusion)

potency in inducing STAT5 phosphorylation in CD8+ OT-I T cells, against T5-IL2M6 [2]: 2
Substance: T4-IL2M6: OVA(257-264)-GCGGS-(GGGGS)2-mB2m-(GGGGS)4-mH2Kb-(GGGGS)4-Fc-(GGGGS)3-hIL2(H16A, F42A) (Fc fusion)

potency in STAT5 phosphorylation on multiple lymphocyte populations (FIG. 12A-C), against IL2M0 (fold less potent than IL2M0) [1]: 100
Substance: IL2M2: Human IL2-(GGGGS)4-human IL-2Ra-GGGGS-Fc (Fc fusion)
